Among the data in PMC6389977 are Kd values, retold here.

The assay addresses purified recombinant human GAPDH protein (human) (UniProt P04406). The assay can be described thus: SPR.

Sequence of purified recombinant human GAPDH protein (human) (P04406 whole entry): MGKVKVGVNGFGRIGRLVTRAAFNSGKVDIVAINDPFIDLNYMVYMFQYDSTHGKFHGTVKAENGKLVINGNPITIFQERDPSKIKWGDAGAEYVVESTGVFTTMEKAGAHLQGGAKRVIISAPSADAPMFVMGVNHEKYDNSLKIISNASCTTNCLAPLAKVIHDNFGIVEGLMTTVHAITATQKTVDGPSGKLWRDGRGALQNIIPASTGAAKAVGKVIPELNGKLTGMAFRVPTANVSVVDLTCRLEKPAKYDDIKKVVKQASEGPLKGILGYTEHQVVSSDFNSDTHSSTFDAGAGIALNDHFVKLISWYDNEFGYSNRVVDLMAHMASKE
Sequence of DENV2 NS3 protease domain (domain or fragment) (P14340 1476-1660 limits assumed): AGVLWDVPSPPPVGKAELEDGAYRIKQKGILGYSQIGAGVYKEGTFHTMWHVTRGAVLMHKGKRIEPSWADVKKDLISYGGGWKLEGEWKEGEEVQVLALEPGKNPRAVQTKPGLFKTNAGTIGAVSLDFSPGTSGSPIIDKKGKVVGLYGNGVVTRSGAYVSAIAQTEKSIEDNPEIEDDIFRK
Sequence of DENV2 NS3 helicase domain (domain or fragment) (P14340 1644-2093 limits assumed): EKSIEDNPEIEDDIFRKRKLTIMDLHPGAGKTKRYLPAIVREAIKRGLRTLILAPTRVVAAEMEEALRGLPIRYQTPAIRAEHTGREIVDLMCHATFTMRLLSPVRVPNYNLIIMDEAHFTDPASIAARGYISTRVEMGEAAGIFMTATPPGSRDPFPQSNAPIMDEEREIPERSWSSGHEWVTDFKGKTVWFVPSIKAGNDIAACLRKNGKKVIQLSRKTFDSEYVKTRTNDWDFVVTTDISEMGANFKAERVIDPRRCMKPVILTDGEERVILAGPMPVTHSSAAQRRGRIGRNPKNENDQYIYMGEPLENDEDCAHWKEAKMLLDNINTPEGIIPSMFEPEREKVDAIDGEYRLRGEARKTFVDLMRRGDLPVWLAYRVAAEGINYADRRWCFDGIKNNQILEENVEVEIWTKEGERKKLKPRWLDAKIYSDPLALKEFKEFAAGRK

Take “DENV2 NS3 helicase domain (domain or fragment)”: the Kd came out at 2500 nM. As for “DENV2 NS3 protease domain (domain or fragment)”, the Kd turned out to be 2400 nM.
